According to patent US20250288675A1 (published 2025):

Assays:
[1] = molecular target: T1, HPV16 E7 peptide on HLA-A*02:01 (human); assay: killing
T1 peptide: YMLDLQPET

[2] = molecular target: T2, MAGE-C2 peptide on HLA-B*07:02 (human); assay: killing
T2 peptide: RAREFMELL

[3] = molecular target: T3, MAGE-A1 peptide on HLA-C*07:02 (human); assay: killing
T3 peptide: VRFFFPSL

[4] = molecular target: T4, MAGE-A1 peptide on HLA-A*02:01 (human); assay: killing
T4 peptide: KVLEYVIKV

[5] = molecular target: T5, PRAME peptide on HLA-A*02:01 (human); assay: activation reporter or marker
T5 peptide: SLLQHLIGL
Text: (§1) Reporter HEK293T cells expressing exclusively HLA-A*02:01 and expressing a granzyme B-activated infrared fluorescent protein (IFP) were further engineered to express either MAGE-A1 or PRAME. The MAGE-A1 expressing cells were GFP-labeled, and the PRAME-positive cells were labeled with both GFP and CellTrace™ Violet to enable tracking in downstream flow cytometry readouts. When a TCR-T cell recognizes a target cell, it secretes cytotoxic granules into the target cell, triggering the target cell to become fluorescent (IFP-positive). The two target cells (i.e., PRAME- or MAGE-A1 positive) were mixed at a balanced ratio and co-cultured with MAGE-A1 TCR-T cells, PRAME TCR-T cells, or a multiplex product combining the two TCR-T cells. PRAME TCR-T cells and MAGE-A1 TCR-T cells were engineered from T cells from the same donor. The TCR-T cells corresponded to pan T cells engineered by lentivirus transduction using a delivery vector employing MGTM modification and co-delivering CD8α and CD8β co-receptor as described above (such as a Table 1). Donor-matched non-engineered T cells (NTC) were also included as a control. The experiment then measured the proportion of each subset of target (GFP-positive, MAGE-A1 target; GFP/CTV-positive, PRAME target) getting recognized and targeted by TCR-T cells as measured by the proportion of GFP or GFP/CTV becoming IFP-positive. […]

[6] = molecular target: T4, MAGE-A1 peptide on HLA-A*02:01; assay: activation reporter or marker
Text: as §1

[7] = molecular target: T5, PRAME peptide on HLA-A*02:01; assay: killing

B1: E7-11-28 (TCR, V domains shown)
Valpha: GQQVMQIPQYQHVQEGEDFTTYCNSSTTLSNIQWYKQRPGGHPVFLIQLVKSGEVKKQKRLTFQFGEAKKNSSLHITATQTTDVGTYFCAGIGSSNTGKLIFGQGTTLQVKP
Vbeta: EPEVTQTPSHQVTQMGQEVILRCVPISNHLYFYWYRQILGQKVEFLVSFYNNEISEKSEIFDDQFSVERPDGSNFTLKIRSTKLEDSAMYFCAITGRVSYEQYFGPGTRLTVT
**Q.** Does B1 bind [1]?
**A.** Result: recognises

B2: MAGEC2 TCR 8-3 (TCR, V domains shown)
Valpha: ILNVEQSPQSLHVQEGDSTNFTCSFPSSNFYALHWYRWETAKSPEALFVMTLNGDEKKKGRISATLNTKEGYSYLYIKGSQPEDSATYLCASGSGGATNKLIFGTGTLLAVQP
Vbeta: GEEVAQTPKHLVRGEGQKAKLYCAPIKGHSYVFWYQQVLKNEFKFLISFQNENVFDETGMPKERFSAKCLPNSPCSLEIQATKLEDSAVYFCASSQSRSLRGTEAFFGQGTRLTVV
**Q.** Does B2 bind [2]?
**A.** Result: recognises

B3: MAGEA1 TCR 32-41 (TCR, V domains shown)
Valpha: TQLLEQSPQFLSIQEGENLTVYCNSSSVFSSLQWYRQEPGEGPVLLVTVVTGGEVKKLKRLTFQFGDARKDSSLHITAAQPGDTGLYLCAGDESISYGKLTFGQGTILTVHP
Vbeta: DAGVIQSPRHEVTEMGQEVTLRCKPISGHDYLFWYRQTMMRGLELLIYFNNNVPIDDSGMPEDRFSAKMPNASFSTLKIQPSEPRDSAVYFCASSFLGWNEKLFFGSGTQLSVL
**Q.** Does B3 bind [3]?
**A.** Result: recognises

**Q.** Does B3 bind [4]?
**A.** Result: no recognition

B4: MAGEA1-278-1479 (TCR, V domains shown)
Valpha: EDQVTQSPEALRLQEGESSSLNCSYTVSGLRGLFWYRQDPGKGPEFLFTLYSAGEEKEKERLKATLTKKESFLHITAPKPEDSATYLCAVSYGQNFVFGPGTRLSVLP
Vbeta: EAGVTQSPTHLIKTRGQQATLRCSPISGHTSVYWYQQALGLGLQFLLWYDEGEERNRGNFPPRFSGRQFPNYSSELNVNALELEDSALYLCASSLGQLNTEAFFGQGTRLTVV
**Q.** Does B4 bind [5]?
**A.** Result: no recognition

**Q.** Does B4 bind [3]?
**A.** Result: no recognition

**Q.** Does B4 bind [4]?
**A.** Result: recognises

B5: PRAME-425-366 (TCR, V domains shown)
Valpha: AQTVTQSQPEMSVQEAETVTLSCTYDTSESDYYLFWYKQPPSRQMILVIRQEAYKQQNATENRFSVNFQKAAKSFSLKISDSQLGDAAMYFCAYRKTSYDKVIFGPGTSLSVIP
Vbeta: AAGVIQSPRHLIKEKRETATLKCYPIPRHDTVYWYQQGPGQDPQFLISFYEKMQSDKGSIPDRFSAQQFSDYHSELNMSSLELGDSALYFCASSFARLEGRDNEQFFGPGTRLTVL
**Q.** Does B5 bind [6]?
**A.** Result: no recognition

**Q.** Does B5 bind [7]?
**A.** Result: recognises
